Measurements taken from PMC9482650, “Quantitative fragmentomics allow affinity mapping of interactomes” (Nature Communications, 2022).

Key:
Test in all cases: holdup assay
Set-up in all cases: key: below the threshold = too weak to quantify, mostly under pKd 3.1 to 4
[1] = target: T1, ARHGAP21, Q5T5U3
T1 sequence (Q5T5U3 45-169, limits assumed, looked up): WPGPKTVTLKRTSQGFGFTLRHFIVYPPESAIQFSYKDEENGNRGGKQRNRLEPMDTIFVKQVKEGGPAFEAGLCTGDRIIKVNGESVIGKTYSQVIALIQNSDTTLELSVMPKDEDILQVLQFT

[2] = target: DLG1_2, Q12959
Chain of DLG1_2, Q12959 (Q12959 314-412): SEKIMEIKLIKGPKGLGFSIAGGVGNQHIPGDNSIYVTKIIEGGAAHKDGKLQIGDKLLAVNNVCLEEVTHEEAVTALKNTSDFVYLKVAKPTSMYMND

[3] = target: DLG1_3, Q12959
Chain of DLG1_3, Q12959 (Q12959 457-571): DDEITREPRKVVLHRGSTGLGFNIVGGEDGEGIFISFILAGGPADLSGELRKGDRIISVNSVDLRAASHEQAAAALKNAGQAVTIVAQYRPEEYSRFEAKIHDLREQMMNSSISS

[4] = target: DLG2_2, Q15700
[5] = target: DLG2_3, Q15700
[6] = target: DLG4_3, P78352
Chain of DLG4_3, P78352 (P78352 306-403): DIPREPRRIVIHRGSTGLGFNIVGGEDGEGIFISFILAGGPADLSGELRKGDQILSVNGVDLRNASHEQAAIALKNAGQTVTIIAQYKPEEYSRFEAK

[7] = target: FRMPD2_2, Q68DX3
Chain of FRMPD2_2, Q68DX3 (Q68DX3 944-1038): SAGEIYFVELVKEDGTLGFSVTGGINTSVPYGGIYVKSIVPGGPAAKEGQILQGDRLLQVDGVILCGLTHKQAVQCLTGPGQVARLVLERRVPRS

[8] = target: GIPC2, Q8TF65
Chain of GIPC2, Q8TF65 (Q8TF65 112-203): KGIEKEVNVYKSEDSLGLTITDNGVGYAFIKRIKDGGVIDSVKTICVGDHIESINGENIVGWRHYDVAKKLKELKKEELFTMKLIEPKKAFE

[9] = target: GOPC, Q9HD26
[10] = target: GRID2IP_1, A4D2P6
Chain of GRID2IP_1, A4D2P6 (A4D2P6 1-87): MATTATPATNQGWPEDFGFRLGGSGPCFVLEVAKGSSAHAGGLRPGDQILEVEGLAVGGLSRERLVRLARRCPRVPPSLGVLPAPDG

[11] = target: GRIP2_3, Q9C0E4
Chain of GRIP2_3, Q9C0E4 (Q9C0E4 238-339): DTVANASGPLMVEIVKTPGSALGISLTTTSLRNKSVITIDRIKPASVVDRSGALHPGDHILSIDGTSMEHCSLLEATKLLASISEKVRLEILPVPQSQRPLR

[12] = target: GRIP2_7, Q9C0E4
Chain of GRIP2_7, Q9C0E4 (Q9C0E4 934-1023): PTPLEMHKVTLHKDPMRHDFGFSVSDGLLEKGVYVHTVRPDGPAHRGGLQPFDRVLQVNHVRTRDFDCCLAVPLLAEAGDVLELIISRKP

[13] = target: HTRA1, Q92743
Chain of HTRA1, Q92743 (Q92743 360-477): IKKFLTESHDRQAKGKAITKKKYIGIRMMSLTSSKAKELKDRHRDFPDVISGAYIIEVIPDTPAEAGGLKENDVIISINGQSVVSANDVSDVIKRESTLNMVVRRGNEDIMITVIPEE

[14] = target: Inadl_10, Q8NI35
Chain of Inadl_10, Q8NI35 (Q8NI35 1673-1763): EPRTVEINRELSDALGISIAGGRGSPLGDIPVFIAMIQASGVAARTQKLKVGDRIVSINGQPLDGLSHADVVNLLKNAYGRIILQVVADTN

[15] = target: T2, LIN7A, O14910
T2 sequence (O14910 103-200, limits assumed, looked up): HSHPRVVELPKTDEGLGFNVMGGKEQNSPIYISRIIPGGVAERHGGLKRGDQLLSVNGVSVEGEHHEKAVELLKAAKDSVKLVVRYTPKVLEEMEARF

[16] = target: T3, LRRC7, Q96NW7
T3 sequence (Q96NW7 1440-1537, limits assumed, looked up): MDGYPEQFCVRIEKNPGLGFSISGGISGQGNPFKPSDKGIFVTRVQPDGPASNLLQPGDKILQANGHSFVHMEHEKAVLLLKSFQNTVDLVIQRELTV

[17] = target: T4, MPDZ_5, O75970
T4 sequence (O75970 695-796, limits assumed, looked up): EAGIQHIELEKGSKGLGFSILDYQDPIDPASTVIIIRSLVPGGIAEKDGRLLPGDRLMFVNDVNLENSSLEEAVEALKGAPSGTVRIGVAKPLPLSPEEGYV

[18] = target: T5, PARD3B_1, Q8TEW8
T5 sequence (Q8TEW8 196-299, limits assumed, looked up): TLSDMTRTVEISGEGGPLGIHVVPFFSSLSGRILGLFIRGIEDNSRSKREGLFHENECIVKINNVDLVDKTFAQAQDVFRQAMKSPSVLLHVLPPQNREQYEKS

[19] = target: T6, PCLO, Q9Y6V0
T6 sequence (Q9Y6V0 4491-4600, limits assumed, looked up): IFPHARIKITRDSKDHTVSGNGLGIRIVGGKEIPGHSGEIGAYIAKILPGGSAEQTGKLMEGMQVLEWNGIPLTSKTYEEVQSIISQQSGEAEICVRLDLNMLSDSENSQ

[20] = target: T7, PDZD7_3, Q9H5P4
T7 sequence (Q9H5P4 857-944, limits assumed, looked up): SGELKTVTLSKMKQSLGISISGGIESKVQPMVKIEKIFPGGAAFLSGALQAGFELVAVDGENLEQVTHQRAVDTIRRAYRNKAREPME

[21] = target: T8, PTPN13_1, Q12923
T8 sequence (Q12923 1088-1188, limits assumed, looked up): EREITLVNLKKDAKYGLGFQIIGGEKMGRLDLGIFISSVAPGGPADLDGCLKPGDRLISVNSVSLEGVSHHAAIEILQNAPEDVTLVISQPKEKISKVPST

[22] = target: T9, RAPGEF6, Q8TEU7
T9 sequence (Q8TEU7 525-625, limits assumed, looked up): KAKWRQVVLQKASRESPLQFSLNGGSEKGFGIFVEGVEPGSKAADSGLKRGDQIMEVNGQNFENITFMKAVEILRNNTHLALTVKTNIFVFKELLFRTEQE

[23] = target: T10, SIPA1L2, Q9P2F8
T10 sequence (Q9P2F8 945-1036, limits assumed, looked up): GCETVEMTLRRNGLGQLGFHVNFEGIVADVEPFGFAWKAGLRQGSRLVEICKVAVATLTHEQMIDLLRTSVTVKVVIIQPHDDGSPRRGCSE

[24] = target: T11, SNTB1, Q13884
T11 sequence (Q13884 107-205, limits assumed, looked up): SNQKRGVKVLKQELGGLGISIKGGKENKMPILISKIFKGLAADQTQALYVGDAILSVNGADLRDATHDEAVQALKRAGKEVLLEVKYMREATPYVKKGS

[25] = target: T12, SYNJ2BP, P57105
T12 sequence (P57105 8-110, limits assumed, looked up): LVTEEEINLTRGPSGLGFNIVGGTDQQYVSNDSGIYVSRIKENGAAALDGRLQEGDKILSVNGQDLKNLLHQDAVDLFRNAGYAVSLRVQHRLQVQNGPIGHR

[26] = plain residues with an end cap or a label only (N-terminal biotin on a linker: ttds)
[27] = plain residues with an end cap or a label only (N-terminal biotin on a linker: ado-ado)

B1: CIT, O14578 (peptide)
chain: VNKVWDQSSV
Question: What does the source list for B1?
Answer: pKd [1, 26]: below the threshold; pKd [2, 26]: 3.48; pKd [3, 26]: 3.49; pKd [4, 26]: below the threshold; pKd [5, 26]: 3.71; pKd [6, 26]: 3.62; pKd [7, 26]: below the threshold; pKd [8, 26]: 3.51; pKd [9, 26]: 3.77; pKd [10, 26]: below the threshold; pKd [11, 26]: below the threshold; pKd [12, 26]: below the threshold; pKd [13, 26]: below the threshold; pKd [14, 26]: below the threshold; pKd [15, 26]: below the threshold; pKd [16, 26]: below the threshold; pKd [17, 26]: below the threshold; pKd [18, 26]: below the threshold; pKd [19, 26]: below the threshold; pKd [20, 26]: below the threshold; pKd [21, 26]: below the threshold; pKd [22, 26]: below the threshold; pKd [23, 26]: below the threshold; pKd [24, 26]: below the threshold; pKd [25, 26]: 4.65

B2: TANC2, Q9HCD6 (peptide)
chain: PKRPFVESNV
Question: With B2 as the binder, how does the pKd [1, 26] read?
Answer: below the threshold

Question: What about the pKd [2, 26] of the same binder?
Answer: 4.65

Question: And the pKd [3, 26]?
Answer: 3.77

Question: What about the pKd [4, 26] of the same binder?
Answer: 4.33

Question: What about the pKd [5, 26] of the same binder?
Answer: 3.86

Question: And the pKd [6, 26]?
Answer: below the threshold

Question: And the pKd [7, 26]?
Answer: below the threshold

Question: And the pKd [8, 26]?
Answer: below the threshold

Question: And the pKd [9, 26]?
Answer: below the threshold

Question: What about the pKd [10, 26] of the same binder?
Answer: below the threshold

Question: What about the pKd [11, 26] of the same binder?
Answer: below the threshold

Question: What about the pKd [12, 26] of the same binder?
Answer: below the threshold

Question: What about the pKd [13, 26] of the same binder?
Answer: below the threshold

Question: What about the pKd [14, 26] of the same binder?
Answer: below the threshold

Question: What about the pKd [15, 26] of the same binder?
Answer: below the threshold

Question: And the pKd [16, 26]?
Answer: 4.05

Question: And the pKd [17, 26]?
Answer: below the threshold

Question: And the pKd [18, 26]?
Answer: below the threshold

Question: What about the pKd [19, 26] of the same binder?
Answer: below the threshold

Question: And the pKd [20, 26]?
Answer: below the threshold

Question: What about the pKd [21, 26] of the same binder?
Answer: below the threshold

Question: And the pKd [22, 26]?
Answer: below the threshold

Question: What about the pKd [23, 26] of the same binder?
Answer: below the threshold

Question: And the pKd [24, 26]?
Answer: 4.49

Question: What about the pKd [25, 26] of the same binder?
Answer: 5.08

B3: KIDINS220, Q9ULH0 (peptide)
chain: GFGEERESIL
Question: B3 was tested. Which pKd [1, 27] did it give?
Answer: 3.9

Question: What about the pKd [2, 27] of the same binder?
Answer: 3.88

Question: What about the pKd [3, 27] of the same binder?
Answer: below the threshold

Question: And the pKd [4, 27]?
Answer: below the threshold

Question: And the pKd [5, 27]?
Answer: below the threshold

Question: What about the pKd [6, 27] of the same binder?
Answer: below the threshold

Question: And the pKd [7, 27]?
Answer: below the threshold

Question: What about the pKd [8, 27] of the same binder?
Answer: 3.87

Question: And the pKd [9, 27]?
Answer: 3.55

Question: And the pKd [10, 27]?
Answer: below the threshold

Question: What about the pKd [11, 27] of the same binder?
Answer: below the threshold

Question: What about the pKd [12, 27] of the same binder?
Answer: below the threshold

Question: And the pKd [13, 27]?
Answer: 4.6

Question: And the pKd [14, 27]?
Answer: below the threshold

Question: And the pKd [15, 27]?
Answer: 3.55

Question: And the pKd [16, 27]?
Answer: below the threshold

Question: What about the pKd [17, 27] of the same binder?
Answer: below the threshold

Question: What about the pKd [18, 27] of the same binder?
Answer: 4.57

Question: And the pKd [19, 27]?
Answer: below the threshold

Question: What about the pKd [20, 27] of the same binder?
Answer: 5.03

Question: And the pKd [21, 27]?
Answer: below the threshold

Question: And the pKd [22, 27]?
Answer: below the threshold

Question: And the pKd [23, 27]?
Answer: below the threshold

Question: What about the pKd [24, 27] of the same binder?
Answer: 5.4

Question: And the pKd [25, 27]?
Answer: 3.95

B4: HTLV1-TAX1, P03409 (peptide)
chain: SEKHFRETEV
Question: What does the source list for B4?
Answer: pKd [1, 26]: below the threshold; pKd [2, 26]: 5.75; pKd [3, 26]: 5.22; pKd [4, 26]: 5.21; pKd [5, 26]: 5.36; pKd [6, 26]: 5.34; pKd [7, 26]: below the threshold; pKd [8, 26]: 3.82; pKd [9, 26]: below the threshold; pKd [10, 26]: below the threshold; pKd [11, 26]: below the threshold; pKd [12, 26]: 3.75; pKd [13, 26]: 3.97; pKd [14, 26]: below the threshold; pKd [15, 26]: 3.82; pKd [16, 26]: 4.69; pKd [17, 26]: below the threshold; pKd [18, 26]: below the threshold; pKd [19, 26]: below the threshold; pKd [20, 26]: 4.82; pKd [21, 26]: below the threshold; pKd [22, 26]: below the threshold; pKd [23, 26]: below the threshold; pKd [24, 26]: 6.12; pKd [25, 26]: 6.04
